{"source": "paper doi:10.1101/2024.04.24.590897", "about": "(bioRxiv, 2024)", "binders": {"B1": {"name": "GST-LEDGF/p52 (natural protein)", "chain": "not shown"}}, "molecular_target": "Flag-LEDGF/p75 (UniProt O75475 1-530)", "experiment": "AlphaScreen or HTRF", "data": [{"binder": "B1", "values": [{"measurement": "binding result", "value": "binds"}]}]}
